Results on twelve substances are retold here after paper PMC4797271.

Holding throughout (assay): EMSA
Background: A gel shift assay detects complexes by their altered migration in electrophoresis.

In series [1] the target is T1, ComA (Bacillus subtilis (W168?)) (UniProt P14204).
T1 sequence: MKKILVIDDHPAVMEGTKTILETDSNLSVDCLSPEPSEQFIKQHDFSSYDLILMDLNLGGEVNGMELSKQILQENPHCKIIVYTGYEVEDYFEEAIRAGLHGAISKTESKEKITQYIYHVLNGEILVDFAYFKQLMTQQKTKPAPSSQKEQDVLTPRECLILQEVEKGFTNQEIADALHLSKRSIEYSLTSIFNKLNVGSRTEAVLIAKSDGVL
To be noted: EMSA: 10 mM HEPES pH 7.6, 2 mM MgCl2, 0.1 mM EDTA, 200 mM KCl, 5 mM DTT, 10% glycerol, 10 ng DNA in 15 ul, 20 min, room temperature.

The target of series [2] is ComA;sigma factor sigmaA (Bacillus subtilis (W168?);Bacillus subtilis) (UniProt P14204+P06224). The note with it: EMSA: 10 mM HEPES pH 7.6, 2 mM MgCl2, 0.1 mM EDTA, 200 mM KCl, 5 mM DTT, 10% glycerol; 10 ng DNA in 15 ul, 20 min, room temperature.
For series [3], the target named is T2, ComA;RNA polymerase alpha subunit (Bacillus subtilis (W168?);Bacillus subtilis) (UniProt P14204+P20429).
T2 sequence 1: T1 sequence
T2 sequence 2: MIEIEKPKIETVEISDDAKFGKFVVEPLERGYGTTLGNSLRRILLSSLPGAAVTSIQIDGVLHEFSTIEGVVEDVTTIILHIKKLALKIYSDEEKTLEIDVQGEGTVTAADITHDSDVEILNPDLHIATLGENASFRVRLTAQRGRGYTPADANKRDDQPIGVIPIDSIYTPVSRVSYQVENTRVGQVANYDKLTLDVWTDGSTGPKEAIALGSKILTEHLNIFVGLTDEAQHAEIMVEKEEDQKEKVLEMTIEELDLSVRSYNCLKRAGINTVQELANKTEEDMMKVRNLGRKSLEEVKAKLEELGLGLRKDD
The note with it: EMSA: 10 mM HEPES pH 7.6, 2 mM MgCl2, 0.1 mM EDTA, 200 mM KCl, 5 mM DTT, 10% glycerol; 10 ng DNA in 15 ul, 20 min, room temperature.

Chain of ComA;sigma factor sigmaA (Bacillus subtilis (W168?);Bacillus subtilis) (P06224 whole entry, one chain of several): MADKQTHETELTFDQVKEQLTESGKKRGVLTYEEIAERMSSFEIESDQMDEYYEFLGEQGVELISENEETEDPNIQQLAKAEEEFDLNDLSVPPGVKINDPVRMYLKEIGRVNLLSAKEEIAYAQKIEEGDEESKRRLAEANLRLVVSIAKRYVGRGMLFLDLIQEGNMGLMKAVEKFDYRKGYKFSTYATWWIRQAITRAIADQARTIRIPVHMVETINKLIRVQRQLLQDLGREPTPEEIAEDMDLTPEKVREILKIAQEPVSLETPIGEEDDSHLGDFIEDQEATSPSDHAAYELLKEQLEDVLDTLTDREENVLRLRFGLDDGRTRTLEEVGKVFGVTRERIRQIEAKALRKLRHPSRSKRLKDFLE

For “TAGATTTCCTCCGACCTAATTTAATCCATTGTTTGTAAACATTTCATATCTAATTATATAACATAGACTCCTATTCTAACTACTTATTTTAAAGCAGTCTGGATTGTTTGGGTAATTCATAAAAAAATAAAAGAAAGAAGGAGGAATAGAGTTTTTCTTTTTTTTGTTTGCAATGTTACTGTCAAGTCGCAAAAGAATTGCTATGACCGAAAAAAAACCGCAAAGGAATAGATATAAGGTACCTTTTTGC (double strand) [Pyddk]”, the binding result in series [1] is given as “binds”. The same measure, in the same setting: the value for NCrapI (no DR) was above 9.6 µM; that for NCyddk (no DR) was above 9.6 µM; that for “AAAACCAAAAGGCCAATGTCGGCCTTTTGGTTTTTTTGCGGTCTTTGCGGTGGGATTTTGCAGAATGCCGCAATAGGATAGCGGAACATTTTCGGTTCTGAATGTCCCTCAATTTGCTATTATATTTTTGTG (double strand) [Ppel]” was “binds”.

For PIR-PDR core module fragment, the Kd in series [1] (apparent Kd, Hill coefficient 1.4) turned out to be 2400 nM. In the case of “TTAATCCCCCCTTTTGAATTACCCGAGATATGTCATATTTTATCATATTTACAAGAAAAAGAAGAACGCAAAATAACCGCAATTGTCGAATTTCGGCTAACCGCAACAAAAAAGCACG (double strand) [PrapA]”, the binding result in series [2], in series [1] and in series [3] was “binds” in each case. PDR ex5 (RE3 G5A) registered a binding in series [1] above 9.6 µM.

The substance PDR ex12 (RE4 G6A) had a binding in series [1] above 9.6 µM. Same read-out and setting: the value for PDR ex3 (RE3 G3A) was above 9.6 µM; that for PDR ex11 (RE4 G5A) was above 9.6 µM. Same read-out and setting: the value for “GTTACTGTCAAGTCGCAAAAGAATTGCTATGACCGAAAAAAAACCGCAAAGGAATAGATATAAGGTACCTTTTTGCAATTCATCTTTGTAAAATAAAGGTTATTCTGACATAATACAATTAATGTAAAAATTCGCACAATTTTATGTAAGGATGGGGGAATTTTC (double strand) [PrapI]” was “binds”.

In turn, PDR ex1 (RE3 T1C) showed a binding signal (fold reduced affinity) in series [1] of 2.
